Target: human CD40 (human) (UniProt P25942)
Assay: flow cytometry on PATHHUNTER U2OS-NIK/NFkB reporter cells; isotype control; beside it Unstained 56.7 and hCD40-APC 16805

Sequence of human CD40 (human) (P25942 21-277): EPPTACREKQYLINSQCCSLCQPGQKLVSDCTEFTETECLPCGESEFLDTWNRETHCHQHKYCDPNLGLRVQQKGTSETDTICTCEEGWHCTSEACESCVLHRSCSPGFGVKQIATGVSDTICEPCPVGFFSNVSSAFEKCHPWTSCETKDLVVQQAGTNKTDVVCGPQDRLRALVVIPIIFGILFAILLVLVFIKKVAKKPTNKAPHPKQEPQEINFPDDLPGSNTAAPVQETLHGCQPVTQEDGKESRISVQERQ

MFI-APC: 2160
Substance: APC Isotype (antibody)

— patent US20220259281A1
